Laboratory results published in IntAct's records for PubMed 10524631.

B1: Phytochrome A (Arabidopsis thaliana (Mouse-ear cress)), P14712 (parent)
chain: MSGSRPTQSSEGSRRSRHSARIIAQTTVDAKLHADFEESGSSFDYSTSVRVTGPVVENQPPRSDKVTTTYLHHIQKGKLIQPFGCLLALDEKTFKVIAYSENASELLTMASHAVPSVGEHPVLGIGTDIRSLFTAPSASALQKALGFGDVSLLNPILVHCRTSAKPFYAIIHRVTGSIIIDFEPVKPYEVPMTAAGALQSYKLAAKAITRLQSLPSGSMERLCDTMVQEVFELTGYDRVMAYKFHEDDHGEVVSEVTKPGLEPYLGLHYPATDIPQAARFLFMKNKVRMIVDCNAKHARVLQDEKLSFDLTLCGSTLRAPHSCHLQYMANMDSIASLVMAVVVNEEDGEGDAPDATTQPQKRKRLWGLVVCHNTTPRFVPFPLRYACEFLAQVFAIHVNKEVELDNQMVEKNILRTQTLLCDMLMRDAPLGIVSQSPNIMDLVKCDGAALLYKDKIWKLGTTPSEFHLQEIASWLCEYHMDSTGLSTDSLHDAGFPRALSLGDSVCGMAAVRISSKDMIFWFRSHTAGEVRWGGAKHDPDDRDDARRMHPRSSFKAFLEVVKTRSLPWKDYEMDAIHSLQLILRNAFKDSETTDVNTKVIYSKLNDLKIDGIQELEAVTSEMVRLIETATVPILAVDSDGLVNGWNTKIAELTGLSVDEAIGKHFLTLVEDSSVEIVKRMLENALEGTEEQNVQFEIKTHLSRADAGPISLVVNACASRDLHENVVGVCFVAHDLTGQKTVMDKFTRIEGDYKAIIQNPNPLIPPIFGTDEFGWCTEWNPAMSKLTGLKREEVIDKMLLGEVFGTQKSCCRLKNQEAFVNLGIVLNNAVTSQDPEKVSFAFFTRGGKYVECLLCVSKKLDREGVVTGVFCFLQLASHELQQALHVQRLAERTAVKRLKALAYIKRQIRNPLSGIMFTRKMIEGTELGPEQRRILQTSALCQKQLSKILDDSDLESIIEGCLDLEMKEFTLNEVLTASTSQVMMKSNGKSVRITNETGEEVMSDTLYGDSIRLQQVLADFMLMAVNFTPSGGQLTVSASLRKDQLGRSVHLANLEIRLTHTGAGIPEFLLNQMFGTEEDVSEEGLSLMVSRKLVKLMNGDVQYLRQAGKSSFIITAELAAANK
partner: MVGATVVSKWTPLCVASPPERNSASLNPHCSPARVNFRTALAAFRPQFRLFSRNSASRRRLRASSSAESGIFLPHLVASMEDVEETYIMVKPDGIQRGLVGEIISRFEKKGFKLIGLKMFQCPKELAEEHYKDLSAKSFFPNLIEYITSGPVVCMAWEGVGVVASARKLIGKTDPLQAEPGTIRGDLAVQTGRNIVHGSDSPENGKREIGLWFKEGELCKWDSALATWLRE

Variants of: B1
Conditions: with ndk2_arath NDPK2, O64903

Row | effect of a mutation on the interaction | Variant
1 | decreasing interaction | G727E
2 | decreasing interaction strength | G750E
